This note sets out measurements from patent US20260217860A1 (BIOCYTOGEN PHARMACEUTICALS BEIJING, published 2026).

Test [1] addresses T1, His-tagged monkey EGFR protein (fasEGFR-His, ACROBiosystems Inc., Cat #: EGR-C52H1) (monkey).
T1 construct: Bought protein
The experiment in a line: SPR, Biacore 8K, 1:1 fit.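 Also: His-tagged targets captured on the chip at roughly 100 RU, antibody analytes flowed at 1 µg/mL in HBS-EP+ pH 7.4, 50 s association, 400 s dissociation.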 A general note: SPR reads the build-up and loss of mass on a sensor chip optically.
Experimental: Specifically, his-tagged proteins were diluted to 200 nM, with 1×HBS-EP+buffer (PH 7.4) and then injected into the Biacore™ 8K biosensor at 10 μL/min for about 50 seconds to achieve a desired protein density (e.g., about 100 response units (RU)). Purified antibodies at 1 μg/mL in 1× HBS-EP+buffer (PH 7.4) were then injected at 10 μL/min for 50 seconds.
Dissociation was monitored for 400 seconds. The chip was regenerated after the last injection of each titration with a glycine solution (pH 1.5) at 30 L/min for 30 seconds.

The target in test [2] is T2, His-tagged human EGFR protein (hEGFR-His, ACROBiosystems Inc., Cat #: EGR-H5222) (human, UniProt P00533 25-645).
T2 construct: Bought protein; not shown: His tag
The experiment in a line: SPR, Biacore 8K, 1:1 fit.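 Also: His-tagged targets captured on the chip at roughly 100 RU, antibody analytes flowed at 1 µg/mL in HBS-EP+ pH 7.4, 50 s association, 400 s dissociation.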

Test [3] deals with T3, His-tagged monkey MUC1 (fasMUC1-His) (monkey, UniProt Q29435 181-380, limits assumed).
T3 construct: not shown: His tag
T3 chain: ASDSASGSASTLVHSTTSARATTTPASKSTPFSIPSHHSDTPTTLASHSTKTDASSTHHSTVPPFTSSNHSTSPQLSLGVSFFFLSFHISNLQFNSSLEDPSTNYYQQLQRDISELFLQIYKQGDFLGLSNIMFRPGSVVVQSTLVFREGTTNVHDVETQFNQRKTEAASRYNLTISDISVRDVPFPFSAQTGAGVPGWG
The experiment in a line: SPR, Biacore 8K, 1:1 fit.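 Also: His-tagged targets captured on the chip at roughly 100 RU, antibody analytes flowed at 1 µg/mL in HBS-EP+ pH 7.4, 50 s association, 400 s dissociation.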

Test [4] deals with T4, His-tagged human MUC1 protein hMUC1(961-1152)-His (human, UniProt P15941 961-1152).
T4 construct: also called hMUC(961-1152)-His; not shown: His tag
The experiment in a line: SPR, Biacore 8K, 1:1 fit.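 Also: His-tagged targets captured on the chip at roughly 100 RU, antibody analytes flowed at 1 µg/mL in HBS-EP+ pH 7.4, 50 s association, 400 s dissociation.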

Test [5] addresses T5, monkey EGFR on CHO-S-fasEGFR cells (monkey, UniProt P55245 25-645).
T5 construct: CHO-S cells transfected with vectors expressing fasEGFR
The experiment in a line: flow cytometry, transfected CHO-S cells, 5 ug/mL.
Experimental: (§1) The anti-EGFR/MUC1 bispecific antibodies (5 μg/mL) were added to the 96-well plate, and incubated at 4° C. for 30 min. […] For the negative control (NC), only cells were added and no antibodies were added.

Test [6] has as its target T6, human MUC1 (484 amino acids) on CHO-S-hMUC1 (484AA) cells (human, UniProt P15941 24-1158).
T6 construct: CHO cells transfected with vectors expressing 484 amino acids of human MUC1
The experiment in a line: flow cytometry, transfected CHO-S cells, 5 ug/mL. Background: A flow cytometer gives signals particle by particle.
Experimental: as §1

Test [7] concerns the target T7, human EGFR on CHO-S-hEGFR cells (human, UniProt P00533 25-645).
T7 construct: CHO-S cells transfected with vectors expressing hEGFR
As to the kind of experiment: flow cytometry, transfected CHO-S cells, 5 ug/mL.
Experimental: as §1

In test [8] the target is T8, monkey (Macaca fascicularis) MUC1 on CHO-S-fasMUC1 cells (monkey (Macaca fascicularis)).
T8 construct: CHO-S cells transfected with vectors expressing fasMUC1; also called monkey MUC1
T8 chain: T3 chain
The experiment in a line: flow cytometry, transfected CHO-S cells, 5 ug/mL.
Experimental: as §1

B1: E-9A6-M-11E8 (bispecific antibody)
heavy 1: not shown
heavy 2: QVQLVQSGGGVVQPGRSLRLSCAASGFTFSSYAMHWVRQAPGKGLEWVAVISDDGINKYYADSVKGRFTISRDNSKNTLYLQMNSLRAEDSAVYYCARALPTIFGVVMYFYYGLDVWGQGTTATVSSASTKGPSVFPLAPSSKSTSGGTAALGCLVKDYFPEPVTVSWNSGALTSGVHTFPAVLQSSGLYSLSSVVTVPSSSLGTQTYICNVNHKPSNTKVDKKVEPKSCDKTHTCPPCPAPELLGGPSVFLFPPKPKDTLMISRTPEVTCVVVDVSHEDPEVKFNWYVDGVEVHNAKTKPREEQYNSTYRVVSVLTVLHQDWLNGKEYKCKVSNKALPAPIEKTISKAKGQPREPQVCTLPPSREEMTKNQVSLSCAVKGFYPSDIAVEWESNGQPENNYKTTPPVLDSDGSFFLVSKLTVDKSRWQQGNVFSCSVMHEALHNHYTQKSLSLSPGK
light: not shown
notes: Knobs-into-holes bispecific with a common light chain; also called anti-EGFR/MUC1 bispecific antibody
On to B1, for which the equilibrium dissociation constant (Kd) in test [1] was 5.44 nM; in test [2], 5.54 nM; in test [3], 40.5 nM; in test [4], 9.99 nM. Also, the koff was 0.00116 s⁻¹ in test [1], 0.00101 s⁻¹ in test [2], 0.0162 s⁻¹ in test [3] and 0.00218 s⁻¹ in test [4]. Also, the kon was 213000 M⁻¹ s⁻¹ in test [1], 183000 M⁻¹ s⁻¹ in test [2], 401000 M⁻¹ s⁻¹ in test [3] and 218000 M⁻¹ s⁻¹ in test [4]. Further, the “Percentage of Positive Cells (%)” value came out at 23% in test [5], 93.5% in test [6], 63.3% in test [7] and 45.1% in test [8].

B2: E-9F3-M-11E8 (bispecific antibody)
heavy 1: not shown
heavy 2: B1 heavy 2
light: not shown
notes: as for B1
As to B2, the Kd in test [1] was found to be 28.7 nM; in test [2] it was 28.7 nM; in test [3], 25.7 nM; in test [4], 2.63 nM. The off-rate (koff) came out at 0.00193 s⁻¹ in test [1], 0.00203 s⁻¹ in test [2], 0.011 s⁻¹ in test [3] and 0.000881 s⁻¹ in test [4]. In addition, the kon was determined as 67100 M⁻¹ s⁻¹ in test [1], 70700 M⁻¹ s⁻¹ in test [2], 426000 M⁻¹ s⁻¹ in test [3] and 336000 M⁻¹ s⁻¹ in test [4]. The “Percentage of Positive Cells (%)” value in test [5] came to 20.5%; in test [6], 94.2%; in test [7], 58.8%; in test [8], 45.5%.

B3: E-9D2-M-11E8 (bispecific antibody)
heavy 1: not shown
heavy 2: B1 heavy 2
light: not shown
notes: as for B1
Take B3: the Kd in test [1] came to 52.2 nM; in test [2] it was 59.5 nM; in test [3], 19.1 nM; in test [4] it was 2.79 nM. Also, the koff in test [1] worked out at 0.0248 s⁻¹; in test [2] it was 0.02 s⁻¹; in test [3], 0.00896 s⁻¹; in test [4], 0.000543 s⁻¹. Further, the kon in test [1] turned out to be 476000 M⁻¹ s⁻¹; in test [2] it was 337000 M⁻¹ s⁻¹; in test [3], 470000 M⁻¹ s⁻¹; in test [4], 195000 M⁻¹ s⁻¹. The “Percentage of Positive Cells (%)” value was 16.8% in test [5], 93.8% in test [6], 50.1% in test [7] and 47% in test [8].

B4: E-6C4-M-11E8 (bispecific antibody)
heavy 1: not shown
heavy 2: B1 heavy 2
light: not shown
notes: as for B1
B4: the Kd was 79.3 nM in test [1], 91.8 nM in test [2], 25.7 nM in test [3] and 2.66 nM in test [4]. In addition, the koff in test [1] was determined as 0.0291 s⁻¹; in test [2] it was 0.0264 s⁻¹; in test [3], 0.0102 s⁻¹; in test [4], 0.00109 s⁻¹. Also, the kon in test [1] was found to be 367000 M⁻¹ s⁻¹; in test [2], 287000 M⁻¹ s⁻¹; in test [3], 398000 M⁻¹ s⁻¹; in test [4], 410000 M⁻¹ s⁻¹. Moreover, the “Percentage of Positive Cells (%)” value in test [5] was found to be 18.3%; in test [6] it was 94%; in test [7], 48.1%; in test [8], 48.2%.

B5: E-9H2-M-11E8 (bispecific antibody)
heavy 1: not shown
heavy 2: B1 heavy 2
light: not shown
notes: Knobs-into-holes bispecific with a common light chain; also called anti-EGFR/MUC1 bispecific antibody; E-9H2-M-llE8
Turning to B5, the Kd in test [1] came out at 80.1 nM; in test [2], 88.3 nM; in test [3], 2.69 nM; in test [4] it was 6.19 nM. Further, the koff in test [1] was 0.0173 s⁻¹; in test [2] it was 0.0157 s⁻¹; in test [3] it was 0.00105 s⁻¹; in test [4] it was 0.000571 s⁻¹. The kon in test [1] was 215000 M⁻¹ s⁻¹; in test [2] it was 178000 M⁻¹ s⁻¹; in test [3] it was 389000 M⁻¹ s⁻¹; in test [4], 92300 M⁻¹ s⁻¹. Also, the “Percentage of Positive Cells (%)” value was 15.1% in test [5], 94% in test [6], 49.3% in test [7] and 47% in test [8].

Broadly, the Kd is the equilibrium constant for the complex coming apart. For orientation: koff means the rate constant with which the complex falls apart. For orientation: kon means the rate constant with which the complex forms.
